Data from article PMC6989803, “Synechocystis KaiC3 Displays Temperature- and KaiB-Dependent ATPase Activity and Is Important for Growth in Darkness” (Journal of Bacteriology, 2019).

Key:
[1] = molecular target: KaiC3 wild-type protein fused to an N-terminal Strep-tag (Synechocystis sp. strain PCC 6803); experiment: SEC; Strep-KaiC3 on Sephacryl S300 HR HiPrep 16/60; 20 or 50 mM Tris-HCl (pH 8.0), 150 mM NaCl, 2 mM DTT, 1 mM ATP, 5 mM MgCl2
[2] = molecular target: the molecule itself; experiment: SEC; KaiB1 and KaiB3 on Sephacryl S200 HR HiPrep 16/60 or Superdex 200 Increase 10/30 GL; 20 or 50 mM Tris-HCl (pH 8.0), 150 mM NaCl, 2 mM DTT

stoichiometry N [1]	Molecule	stoichiometry N [2]
6	KaiC3 wild-type protein fused to an N-terminal Strep-tag (enzyme)	
	KaiB3, recombinant, GST tag cleaved off (natural protein, Synechocystis sp. strain PCC 6803, UniProt Q55819 1-102, looked up, Eluted as a monomer and as a tetramer; the two fractions were tested separately in the ATPase assay; also called KaiB3 monomer; KaiB3 tetramer) MDMNRIVLRLYITGNSVRSQQAIANIYRICQEDLGDQYNVEIIDVLEQPQRAEEEKIMVTPTLIKQLPPPLQRIIGDMSNTEKVLLGLDIVPEGLQVRLPED	4
	KaiB1, recombinant, GST tag cleaved off (natural protein, Synechocystis sp. strain PCC 6803, UniProt P74645 1-105, looked up, Eluted only as a tetramer from size exclusion chromatography; also called KaiB1 tetramer) MSPFKKTYVLKLYVAGNTPNSVRALKMLKNILEQEFQGVYALKVIDVLKNPQLAEEDKILATPTLAKILPPPVRKIIGDLSDREKVLIGLDLLYDEIREREAEDQ	4
